Laboratory results taken from PMC9712992.

Biological target: D76N-β2-microglobulin (UniProt P61769)
UniProt P61769, sequence (P61769 other isoform, or with tags, fused parts or gaps D76N | D76N): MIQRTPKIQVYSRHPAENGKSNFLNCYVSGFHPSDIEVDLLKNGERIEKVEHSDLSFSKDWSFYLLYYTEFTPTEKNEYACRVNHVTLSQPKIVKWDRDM

**Q.** With “crosslinked dimers (XL-Ds) of D76N-β2m/S57C (from UniProt P61769 21-119) (complex)” as the substance, how does the ThT fluorescence kinetics of seeded fibril growth of 20 μM D76N-β2m with 3% or 10% (w/w) fibril seeds and 10% (w/w) XL-Ds: fold increase in T (half) read?
**A.** 1.6 fold
